Reference: paper PMC8878492
Several values for one entry are separate records, joined by “and”; a condition that tells them apart may be missing. Equal entries are not always repeated.

What was measured:
[1] = biological target: HAdV-D26 penton base (human adenovirus D26 (HAdV-D26)); experiment: cryo-EM structure
[2] = biological target: HAdV-D26 hexon (human adenovirus D26 (HAdV-D26)); experiment: cryo-EM structure

| Substance | stoichiometry N [1] [subunits] | stoichiometry N (copies of pVIn in a hexon) [2] |
| --- | --- | --- |
| HAdV-D26 penton base (natural protein) | 5 | – |
| cleaved N-terminal fragment of HAdV-D26 pre-protein VI (pVIn) (peptide) | – | 2 and 3 |
